Literature values in paper PMC12635586.

Columns and labels:
GFRAL (Homo sapiens) = GFRAL (Homo sapiens) (UniProt Q6UXV0)
GFRAL (Homo sapiens), sequence (Q6UXV0 19-351): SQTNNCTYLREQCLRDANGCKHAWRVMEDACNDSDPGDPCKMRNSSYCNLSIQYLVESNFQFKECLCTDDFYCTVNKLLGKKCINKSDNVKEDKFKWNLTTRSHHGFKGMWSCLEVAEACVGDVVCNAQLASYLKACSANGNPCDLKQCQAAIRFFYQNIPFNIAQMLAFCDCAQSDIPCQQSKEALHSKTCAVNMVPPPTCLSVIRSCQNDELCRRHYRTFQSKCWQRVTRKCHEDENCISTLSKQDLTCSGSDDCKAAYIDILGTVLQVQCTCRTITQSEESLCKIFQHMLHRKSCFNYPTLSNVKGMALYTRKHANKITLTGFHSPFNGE

Interleukin-6, sequence (P05231 30-212): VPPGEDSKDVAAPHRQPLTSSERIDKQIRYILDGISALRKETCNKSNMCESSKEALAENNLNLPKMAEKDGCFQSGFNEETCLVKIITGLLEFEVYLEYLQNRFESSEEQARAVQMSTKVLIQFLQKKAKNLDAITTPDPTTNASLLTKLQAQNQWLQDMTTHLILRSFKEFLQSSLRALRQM
Growth differentiation factor-15, sequence (Q99988 195-308): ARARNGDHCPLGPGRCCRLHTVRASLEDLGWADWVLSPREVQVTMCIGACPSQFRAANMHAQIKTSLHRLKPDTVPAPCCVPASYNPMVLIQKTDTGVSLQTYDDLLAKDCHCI
Clazakizumab, sequence (main, as listed by the source, chain 1 of 2): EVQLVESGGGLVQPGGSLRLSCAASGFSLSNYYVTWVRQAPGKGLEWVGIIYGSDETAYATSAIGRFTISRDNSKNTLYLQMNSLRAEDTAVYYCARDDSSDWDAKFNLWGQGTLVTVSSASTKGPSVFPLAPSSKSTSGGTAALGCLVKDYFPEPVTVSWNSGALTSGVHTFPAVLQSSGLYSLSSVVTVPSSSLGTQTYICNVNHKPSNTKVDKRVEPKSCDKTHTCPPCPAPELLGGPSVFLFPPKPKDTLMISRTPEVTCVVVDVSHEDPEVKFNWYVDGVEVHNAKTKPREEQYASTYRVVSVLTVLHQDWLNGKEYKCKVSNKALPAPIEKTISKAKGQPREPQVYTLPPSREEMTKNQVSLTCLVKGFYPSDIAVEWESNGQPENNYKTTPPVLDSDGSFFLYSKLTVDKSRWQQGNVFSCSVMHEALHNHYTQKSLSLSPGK
Clazakizumab, sequence (partner, as listed by the source, chain 2 of 2): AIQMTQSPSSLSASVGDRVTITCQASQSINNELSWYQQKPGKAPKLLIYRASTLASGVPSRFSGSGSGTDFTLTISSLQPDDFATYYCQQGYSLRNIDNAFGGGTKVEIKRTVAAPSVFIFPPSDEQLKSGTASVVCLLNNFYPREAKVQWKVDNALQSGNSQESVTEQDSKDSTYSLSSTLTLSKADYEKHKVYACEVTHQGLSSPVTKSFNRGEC

| Kd (Clazakizumab) [nM] | Kd (GFRAL (Homo sapiens)) [nM] | Substance |
| --- | --- | --- |
| 0.004 |  | Interleukin-6 (from UniProt P05231) |
|  | 8 | Growth differentiation factor-15 (from UniProt Q99988) |
